Assay results: patent US20230181719A1, “NGR CONJUGATES AND USES THEREOF” (OSPEDALE SAN RAFFAELE S.R.L., priority 2020, published 2023)
Like-named read-outs stand apart in the source and are kept apart here.

Assays:
[1] = system: WEHI-164 fibrosarcoma; test: Low-dose treatment in subcutaneous WEHI-164 fibrosarcoma murine model; assay type: in vivo
Procedure: FIG. 14. […] Balb/c mice (6-7 weeks old, weighing 18-20 g) were injected, s.c., with 1.5×10^6 WEHI-164 cells in the left flank and treated 5 days after tumor implantation (i.p.) with 25 or 50 pg of murine NGR-TNF or S-NGR-TNF in 0.9% sodium chloride, containing 100 µg/ml endotoxin-free human serum albumin (arrows). A) Tumor volumes after treatment (mean±SE, 6 mice per group). B) Tumor weight at day 15 (cumulative data of the two groups treated with 25 and 50 pg of drugs). *, P<0.05, **P<0.01 by unpaired t test of the area under the curve for each tumor (GraphPad Prism software).
To assess whether the addition of the Ser residue to NGR-TNF might affect its anti-tumor activity at low dose, inventors then analyzed the therapeutic activity of NGR-TNF and S-NGR-TNF (25 or 50 pg, i.p.) using the subcutaneous WEHI-164 fibrosarcoma murine model.

[2] = system: endothelial EA.hy926 cells; test: EA.hy926 endothelial cell adhesion assay on protein-coated microtiterplates; assay type: cell-based
Procedure: FIG. 12. […] A) Adhesion of endothelial EA.hy926 cells to 96-wells microtiterplates coated with different amounts of murine TNF, NGR-TNF and S-NGR-TNF in 150 mM sodium chloride, 50 mM sodium phosphate buffer, pH 7.4 (PBS) (16 h). Each well was blocked with 2% BSA in PBS containing calcium chloride and magnesium chloride (DPBS, 30 min), seeded with 40.000 endothelial EA.hy926 cells in DPBS supplemented with 0.1% BSA (DPBS-B), and left to incubate for 2 h at 37° C., 5% CO2. After washing with DMEM-B, adherent cells were stained with crystal violet and quantified by spectrophotometric measurements at 570 nm. B) Microtiterplates pre-coated with 1 µg/ml of murine NGR-TNF or S-NGR-TNF in PBS (for 16 h) were incubated 0.1 M ammonium bicarbonate buffer, pH 8.5 (Ambic) at 37° C. for the indicated time to promote NGR deamidation. EA.hy926 cell adhesion assay was then performed as described above.
This behavior likely reflects a further improvement in the CNGRCG (SEQ ID NO: 1) stability when fused to TNF.

[3] = system: RMA lymphoma; assay type: in vivo, mice
Procedure: FIG. 15. […] C57BL/6 mice (6-7 weeks old, weighing 18-20 g) were challenged with subcutaneous injection in the left flank of 7×10^4 RMA cells. Mice bearing RMA lymphomas (6 per group) were treated 10-11 days (after tumor implantation with 100 pg of murine NGR-TNF or S-NGR-TNF (i.p.). Two hours later, the mice were injected with the indicated dose of melphalan (i.p.). All proteins were diluted with 0.9% sodium chloride, containing 100 µg/ml endotoxin-free human albumin. Tumor growth was monitored daily by measuring the tumors with calipers. A-B) Tumor volume change of two independent experiments are shown (mean±SE). […] C) Tumor bearing-animals were treated at day 10 after tumor implantation as indicated above using the indicated dose of S-NGR-TNF and the generic preparation of melphalan (Melphalan-Tillomed, from Tillomed Italia). RMA tumor weight at day 20 are shown (mean±SE). *, P<0.05, **P<0.01 by unpaired t test analysis with the GraphPad Prism software.
Effect of melphalan alone or in combination with low-dose murine S-NGR-TNF on the body weight and tumor growth of RMA-T lymphoma-bearing mice. Six tumor-bearing mice were injected with the indicated doses of S-NGR-TNF (i.p) and, two hours later, with the generic preparation of melphalan (Melphalan-Tillomed) (i.p.).
Finally, to assess whether low-dose S-NGR-TNF can exert synergistic effects with chemotherapy, as previously observed for NGR-TNF, inventors performed in vivo experiments with S-NGR-TNF and NGR-TNF in combination with melphalan, a chemotherapeutic drug, using the murine RMA lymphoma model (FIG. 15).

[4] = system: L-M cells; test: LM-cells cytolytic assay (MTT); assay type: cell-based; conditions: actinomycin D, 20 h, murine proteins
Excerpt: FIG. 8. Biochemical and biological characterization of murine S-NGR-TNF and NGR-TNF. A) SDS-PAGE under reducing (βMe +) and non-reducing conditions (βMe -) of murine S-NGR-TNF, NGR-TNF and TNF. Arrows: bands corresponding to monomeric subunits (mon) and reducible dimers (dim). B) Representative mass spectra of murine NGR-TNF, TNF and S-NGR-TNF as determined by a Q Exactive HF mass spectrometer. Expected average masses are shown. C) Cytotoxic activity of TNF, NGR-TNF and S-NGR-TNF against L-M cells. L-M cells were incubated in DMEM medium supplemented with 2 mM glutamine, 100 U/ml penicillin, 100 µg/ml streptomycin, 0.25 µg/ml amphotericin-B, 10% fetal bovine serum, 2 µg/ml actinomycin D and TNF, NGR-TNF or S-NGR-TNF at the indicated doses (20 h at 37° C., 5% CO2). Cell viability was quantified by standard 3-(4,5-dimethylthiazol-2-yl)-2,5-diphenyltetrazolium bromide (MTT) assay. D) Binding of TNF, NGR-TNF and S-NGR-TNF to sTNF-R1 (Etanercept). Microtiterplates were precoated with or without the indicated amount of sTNF-R1 (for 16 h), washed with PBS, blocked with PBS containing 3% milk, 1% BSA (binding buffer, 1 h) and incubated with the indicated amounts of TNF, NGR-TNF or S-NGR-TNF diluted in binding buffer (for 1.5 h). The binding of each protein to sTNF-R1 was then detected using a polyclonal anti-murine TNF (IP301, 5 µg/ml in binding buffer, 1 h) followed by a polyclonal goat anti-rabbit antibody conjugated with horseradish peroxidase (1:1000 in binding buffer, 1 h) and o-phenylendiammine as chromogenic substrate.
To assess whether the addition of a serine residue to NGR-TNF affects its capability to recognize the TNF receptors and, consequently, its biological activity, inventors then analyzed the cytotoxic activity of TNF, NGR-TNF and S-NGR-TNF in the LM-cells cytolytic assay.

[5] = system: RMA-T lymphoma-bearing mice; assay type: in vivo; conditions: high dose 2 µg and 6 µg
Procedure: FIG. 13. […] A) Effect of high-dose murine S-NGR-TNF or NGR-TNF on the body weight and tumor volume of RMA-T lymphoma- bearing mice. Six C57BL/6 mice (6-7 weeks old, weighing 18-20 g) were challenged with subcutaneous injection in the left flank of 5 ×10^4 RMA-T cells. Mice bearing RMA lymphomas (6 per group) were treated at day 11 after tumor implantation with 2 µg and 6 µg of murine NGR-TNF or S-NGR-TNF in 0.9% sodium chloride, containing 100 µg/ml endotoxin-free human albumin (i.p.) as indicated (arrows). Animal weights and tumor growth were monitored as indicated. B) Effect of melphalan alone or in combination with low-dose murine S-NGR-TNF on the body weight of RMA-T lymphoma-bearing mice.
To assess the impact of the additional serine residue added to the N-terminus of NGR-TNF on its toxicity and anti-tumor activity inventors injected high-dose NGR-TNF or S-NGR-TNF to mice bearing subcutaneous RMA-T lymphomas (n=6) and evaluated the loss of animal weight. […] Three days later the mice regained the original weight.

[6] = system: GL261 glioblastoma
Procedure: Mice bearing GL21-Luc2 glioblastomas (9-10 per group) were treated at day 7, 14 and 21 after tumor implantation with the S-NGR-mTNF (5 ng/kg, about 100 pg/mouse, i.p.). Two hours later, mice were injected with the indicated dose of doxorubicin (doxo, i.p.). […] Tumor growth was monitored by measuring the tumor-associated bioluminescence at day 7, 11, 14, 18, 21, and 28 after the administration of luciferin.
Bioluminescent murine glioma GL21-Luc2 cells, engineered to stably express the firefly luciferase, were orthotopically implanted in C57BL/6J mice (9 weeks-old) into the right striatum (2.5x10^4 cells/mouse). Pharmacological treatments started on the 7 days after tumor cell implantation. Mice were injected, i.p., with 5 ng/Kg dose of S-NGR-TNF (about 100 pg/mice, diluted in 0.9% sodium chloride solution containing 100 µg/ml of HSA), or in combination with doxorubicin (5 mg/Kg) administered 2 h later. Tumor growth was monitored by non-invasive bioluminescence imaging using a PhotonImager RT system (Biospace Lab, France) after luciferase substrate administration (i.p.).
The antitumor activity of S-NGR-mTNF was then investigated in combination of doxorubicin (doxo), a chemotherapeutic drug, in the GL261-luc2 model. To this aims, tumor bearing-animal were treated at day 7, 14 and 21 post tumor implantation with S-NGR-mTNF (5 ng/kg, i.p.) and 2 h later with doxo (i.p., 5 mg/kg, corresponding to about 100 µg/mouse). In parallel, control mice were treated with vehicle or doxo alone.

[7] = system: GL261 glioblastoma; assay type: in vivo, mice; conditions: i.p., 5 ng/kg at day 7, 19 and 31
Excerpt: Effect of S-NGR-mTNF on the […] glioblastoma growth and animal body weight. C57BL/6J mice (9 weeks old, weighing 18-21 g) were intracranially implanted with 2.5 × 10^4 GL21-Luc2 cells.
C) Kaplan-Maier curves of vehicle and S-NGR-mTNF.
Inventors next investigated the antitumor activity of murine S-NGR-TNF (S-NGR-mTNF) in the GL261 glioblastoma model, one of the most frequently used syngeneic murine glioma models. To this aim, inventors have exploited GL261 cells genetically engineered to express luciferase (GL261-luc2). This allows in vivo visualization of tumors growth and response to treatment within the brain by bioluminescence imaging.

B1: S-NGR-TNF: Murine SCNGRCG-TNF fusion protein: serine residue added to the N-terminus of NGR-TNF (SEQ ID NO: 26) (protein)
chain: SCNGRCGLRSSSQNSSDKPVAHVVANHQVEEQLEWLSQRANALLANGMDLKDNQLVVPADGLYLVYSQVLFKGQGCPDYVLLTHTVSRFAISYQEKVNLLSAVKSPCPKDTPEGAELKPWYEPIYLGGVFQLEKGDQLSAEVNLPKYLDFAESGQVYFGVIAL
**Q.** How did the “anti-tumor effects compared to 25 pg of NGR-TNF” value ([1]; 25 pg) turn out when B1 was run?
**A.** slightly stronger anti-tumor effects

**Q.** And the toxicity ([1]; 25 or 50 pg, i.p.)?
**A.** No evidence of toxicity

**Q.** What about the tumor growth ([1]; 25 or 50 pg, i.p.) of the same molecule?
**A.** delayed tumor growth to similar extent

**Q.** And the “EA.hy926 cell adhesion to coated plates” value ([2]; plates coated in PBS, no forced deamidation)?
**A.** not

**Q.** And the “EA.hy926 cell adhesion after forced deamidation” value ([2]; plates treated with 0.1 M ammonium bicarbonate buffer, pH 8.5, compared to NGR-TNF)?
**A.** a longer time of incubation under deamidation conditions was necessary

**Q.** What about the “efficacy of melphalan in combination” value ([3]; 100 pg i.p., melphalan two hours later) of the same molecule?
**A.** could enhance the efficacy of melphalan

**Q.** What about the “antitumor activity of combination” value ([3]; S-NGR-TNF 100 pg with melphalan 50 µg) of the same molecule?
**A.** significant increase of antitumor activity

**Q.** And the “antitumor effect compared to NGR-TNF” value ([3]; in combination with melphalan)?
**A.** slightly stronger antitumor effect

**Q.** What about the EC50 cytotoxic activity [4] of the same molecule?
**A.** very similar

**Q.** And the “antitumor effects compared to NGR-TNF” value [5]?
**A.** slightly stronger antitumor effects

**Q.** What about the “mice with delayed tumor growth” value ([6]; S-NGR-mTNF 5 ng/kg i.p. and 2 h later doxo 5 mg/kg, day 7, 14, 21) of the same molecule?
**A.** 55%

**Q.** What about the “toxicity of doxo, judged from loss of animal weight” value ([6]; S-NGR-mTNF 5 ng/kg with doxo 5 mg/kg) of the same molecule?
**A.** did not exacerbate the toxicity of doxo

**Q.** What about the tumor growth ([6]; S-NGR-mTNF 5 ng/kg with doxo 5 mg/kg (combination therapy)) of the same molecule?
**A.** could significantly delay tumor growth

**Q.** And the “gain of body weight of cured animals” value [7]?
**A.** about +15%

**Q.** What about the tumor growth [7] of the same molecule?
**A.** significantly delayed tumor growth
